The labels stand for the following.
B1: Chromodomain-helicase-DNA-binding protein 5, residues 411 to 463; numbered along this chain, Q8TDI0 (parent)
chain: EEDDHMEFCRVCKDGGELLCCDACPSSYHLHCLNPPLPEIPNGEWLCPRCTCP

± gives the uncertainty stated by the source.

Variants of B1 are the subject of this series. The series is described as follows: abundance fitness (aPCA) (normalised: wild type 0, dead -1); higher = more abundant; growth selection in yeast, the domain comes from the species named. The note with it: Homo sapiens.
Take A23Q: the abundance fitness was 0.305 ± 0.13.

In the case of A23H, the abundance fitness came to 0.088 ± 0.17. To A23G belongs -0.014 ± 0.088; to A23P, -0.488 ± 0.22.

For the variant A23K, the abundance fitness was 0.092 ± 0.093.

In the case of A23S, the abundance fitness amounted to 0.301 ± 0.1. On to A23T, for which the abundance fitness turned out to be 0.08 ± 0.054. Take A23F: the abundance fitness was -0.708 ± 0.32. With A23R, the abundance fitness was -0.022 ± 0.088. On to A23C, for which the abundance fitness is -0.018 ± 0.14. As to A23W, the abundance fitness was -0.043 ± 0.072. With A23L, the abundance fitness was found to be 0.068 ± 0.069.

For the variant A23Y, the abundance fitness is 0.193 ± 0.074. A23M: the abundance fitness is -0.324 ± 0.13.

Regarding A23D, the abundance fitness was -0.082 ± 0.12. On to G16N, for which the abundance fitness is -0.369 ± 0.4.

Consider G16P, for which the abundance fitness was -0.832 ± 0.15. With G16M, the abundance fitness was -0.301 ± 0.13. For the variant G16V, the abundance fitness was -0.36 ± 0.063. As to G16D, the abundance fitness was -0.003 ± 0.14. As to G16I, the abundance fitness is -0.145 ± 0.32. With G16C, the abundance fitness is -0.183 ± 0.21. Regarding G16E, the abundance fitness was determined as 0.411 ± 0.12.

Consider G16S, for which the abundance fitness is -0.023 ± 0.11.

Consider G16R, for which the abundance fitness was -0.518 ± 0.14. For the variant G16K, the abundance fitness was -0.482 ± 0.16. Take G16A: the abundance fitness is -0.629 ± 0.17. Consider G16L, for which the abundance fitness is -0.28 ± 0.078. To F8L belongs 0.015 ± 0.065; to F8R, -0.051 ± 0.045; to F8A, -0.017 ± 0.066. For F8Y the value was 0.033 ± 0.088; for F8I, -0.347 ± 0.12; for F8H, -0.163 ± 0.1. For the variant F8C, the abundance fitness is -0.242 ± 0.097.

F8K: the abundance fitness is -0.409 ± 0.12. On to F8V, for which the abundance fitness was -0.152 ± 0.076.

F8T: the abundance fitness stood at 0.023 ± 0.077. On to F8G, for which the abundance fitness was determined as 0.033 ± 0.044. For the variant F8E, the abundance fitness is -0.135 ± 0.083. On to F8W, for which the abundance fitness is -0.346 ± 0.083.

Consider F8P, for which the abundance fitness was -0.261 ± 0.081. To F8N belongs 0.024 ± 0.11. For F8M, the abundance fitness is -0.131 ± 0.075. In the case of F8D, the abundance fitness was -0.138 ± 0.077.

F8S: the abundance fitness was -0.099 ± 0.073. With F8Q, the abundance fitness was -0.17 ± 0.051. Consider S26K, for which the abundance fitness is -0.062 ± 0.09. Take S26I: the abundance fitness is -0.08 ± 0.1. Consider S26L, for which the abundance fitness was 0.001 ± 0.05. Regarding S26R, the abundance fitness is -0.106 ± 0.078. For S26D, the abundance fitness was found to be 0.011 ± 0.099.

S26E: the abundance fitness came to 0.011 ± 0.068. In the case of S26T, the abundance fitness worked out at 0.002 ± 0.051.

With S26N, the abundance fitness is 0.167 ± 0.37. On to S26C, for which the abundance fitness was -0.107 ± 0.054. Regarding S26G, the abundance fitness is -0.036 ± 0.073. Take S26W: the abundance fitness was -0.37 ± 0.083. For S26V the value was 0.02 ± 0.063; for S26H, -0.008 ± 0.067. Take S26A: the abundance fitness was 0.044 ± 0.054. To S26Q belongs -0.387 ± 0.095.

As to C12F, the abundance fitness was -0.756 ± 0.21. For C12D, the abundance fitness is -0.574 ± 0.048. As for C12Q, the abundance fitness was -0.938 ± 0.19. On to C12W, for which the abundance fitness is -0.552 ± 0.11.

Regarding C12I, the abundance fitness was -0.601 ± 0.095. Turning to C12S, the abundance fitness was -0.947 ± 0.07. C12V: the abundance fitness is -0.828 ± 0.088. Regarding C12G, the abundance fitness is -0.66 ± 0.066. Regarding C12R, the abundance fitness was -0.783 ± 0.082. Turning to C12P, the abundance fitness is -0.699 ± 0.1.

For C12M, the abundance fitness was -0.923 ± 0.071. Regarding C12A, the abundance fitness was -0.963 ± 0.061. Turning to C12E, the abundance fitness is -0.504 ± 0.049. C12N: the abundance fitness is -0.852 ± 0.21. Regarding C12K, the abundance fitness is -0.684 ± 0.12. As for C12L, the abundance fitness is -0.971 ± 0.079. C12T: the abundance fitness is -0.581 ± 0.099. Consider D22Q, for which the abundance fitness was 0.099 ± 0.048. On to D22C, for which the abundance fitness was -0.046 ± 0.08. For D22P, the abundance fitness is 0.008 ± 0.055. For D22G the value was 0.049 ± 0.05. D22Y: the abundance fitness was -0.059 ± 0.044.

On to D22S, for which the abundance fitness was 0.034 ± 0.041.

On to D22M, for which the abundance fitness came out at 0.051 ± 0.066. Take D22K: the abundance fitness is 0.108 ± 0.052. On to D22F, for which the abundance fitness was -0.139 ± 0.066.

In the case of D22W, the abundance fitness was -0.082 ± 0.064. For D22N the value was 0.093 ± 0.053; for D22R, 0.071 ± 0.044. For the variant D22E, the abundance fitness was found to be 0.061 ± 0.077. To D22H belongs 0.005 ± 0.054.

In the case of D22V, the abundance fitness is -0.085 ± 0.046. As to D22L, the abundance fitness is -0.026 ± 0.044.

Take D22A: the abundance fitness worked out at 0.05 ± 0.045. In the case of D22T, the abundance fitness was 0.038 ± 0.053. D22I: the abundance fitness is -0.04 ± 0.068. For the variant C21R, the abundance fitness was -1.09 ± 0.099. Take C21L: the abundance fitness was -0.999 ± 0.071. For C21P the value was -0.483 ± 0.086; for C21V, -0.932 ± 0.054. Consider C21K, for which the abundance fitness is -0.641 ± 0.088. As to C21G, the abundance fitness is -0.809 ± 0.067. Turning to C21Q, the abundance fitness was -0.633 ± 0.079. In the case of C21H, the abundance fitness is -0.773 ± 0.17. Consider C21Y, for which the abundance fitness is -0.946 ± 0.2. As to C21W, the abundance fitness was -0.958 ± 0.071.

C21S: the abundance fitness was -0.883 ± 0.058.

For C21A, the abundance fitness is -0.83 ± 0.061. Take C21M: the abundance fitness is -1.08 ± 0.23. For C21F the value was -0.844 ± 0.15. To C21I belongs -1.13 ± 0.2; to C21D, -0.791 ± 0.1. C21T: the abundance fitness was -1 ± 0.14. As to C21E, the abundance fitness is -0.873 ± 0.11. For C21N the value was -1.03 ± 0.15; for P25F, -0.094 ± 0.087; for P25Y, 0.023 ± 0.071. For P25W, the abundance fitness was -0.067 ± 0.072. Consider P25G, for which the abundance fitness was 0.085 ± 0.067. With P25A, the abundance fitness came to 0.094 ± 0.07. Turning to P25S, the abundance fitness is 0.022 ± 0.055.

Regarding P25Q, the abundance fitness is -0.118 ± 0.089. For the variant P25I, the abundance fitness was -0.04 ± 0.1.

Consider P25H, for which the abundance fitness was 0.024 ± 0.09. Take P25E: the abundance fitness turned out to be 0.054 ± 0.084.

Take P25N: the abundance fitness was -0.025 ± 0.079. P25T: the abundance fitness worked out at 0.044 ± 0.065. Take P25K: the abundance fitness was found to be 0.058 ± 0.075. For P25L the value was -0.157 ± 0.067.

On to P25V, for which the abundance fitness was 0.03 ± 0.076. For P25C, the abundance fitness was determined as 0.087 ± 0.061. P25R: the abundance fitness is 0.087 ± 0.063.

Regarding P25M, the abundance fitness was -0.11 ± 0.077. Take K13N: the abundance fitness was 0.075 ± 0.1. On to K13H, for which the abundance fitness is -0.265 ± 0.074. To K13R belongs -0.068 ± 0.062; to K13A, 0.015 ± 0.064.

On to K13T, for which the abundance fitness is -0.311 ± 0.046. Regarding K13S, the abundance fitness is -0.309 ± 0.06.

Consider K13D, for which the abundance fitness amounted to 0.01 ± 0.051. For K13I, the abundance fitness was -0.644 ± 0.22. To K13C belongs 0.021 ± 0.098; to K13F, -0.546 ± 0.1. To K13W belongs -0.299 ± 0.059; to K13G, -0.008 ± 0.051. For the variant K13E, the abundance fitness worked out at 0.142 ± 0.078.

In the case of K13L, the abundance fitness is -0.206 ± 0.047.

For the variant K13Y, the abundance fitness was -0.368 ± 0.12. To K13M belongs -0.18 ± 0.071. Turning to E7Q, the abundance fitness is -0.332 ± 0.12.

With E7V, the abundance fitness was 0.063 ± 0.064. Turning to E7S, the abundance fitness is -0.215 ± 0.084. Take E7W: the abundance fitness was -0.247 ± 0.067.

As to E7R, the abundance fitness was -0.027 ± 0.074.

Consider E7Y, for which the abundance fitness was -0.527 ± 0.17. For E17V the value was -0.228 ± 0.05; for E17K, 0.007 ± 0.068. Turning to E17C, the abundance fitness was -0.187 ± 0.074. Regarding E17W, the abundance fitness was -0.458 ± 0.052. To E17I belongs -0.102 ± 0.045. Turning to E17N, the abundance fitness is -0.063 ± 0.061. E17P: the abundance fitness is -0.239 ± 0.052. Regarding E17L, the abundance fitness was -0.27 ± 0.051.

As for E17M, the abundance fitness was -0.13 ± 0.059. As for E17D, the abundance fitness was -0.276 ± 0.074.

These data come from the Human Domainome abundance scans (Beltran et al. 2025).
